Article PMC3825029 (Journal of immunology (Baltimore, Md. : 1950), 2013)
Values belong to the molecule of their own block, whether it stands above or below them.

What was measured:
[1] = molecular target: C3b; test: SPR
[2] = molecular target: C3dg (UniProt P01024 955-1303); test: SPR
Chain of C3dg (P01024 955-1303): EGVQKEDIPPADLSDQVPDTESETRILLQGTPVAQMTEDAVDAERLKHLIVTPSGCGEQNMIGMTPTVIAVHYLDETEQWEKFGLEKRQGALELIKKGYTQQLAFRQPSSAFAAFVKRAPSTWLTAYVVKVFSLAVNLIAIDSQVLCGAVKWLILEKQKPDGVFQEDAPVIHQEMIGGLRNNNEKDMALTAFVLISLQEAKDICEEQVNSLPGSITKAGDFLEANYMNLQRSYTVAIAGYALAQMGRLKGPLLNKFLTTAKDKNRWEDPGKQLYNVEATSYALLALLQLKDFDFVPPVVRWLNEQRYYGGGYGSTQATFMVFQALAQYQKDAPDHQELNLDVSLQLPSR

- Kd [1]: 1000 nM
Molecule: factor H (from UniProt P08603 19-1231) (natural protein)

- Kd [1]: 1000 nM
Molecule: mini-FH (from UniProt P08603 1-264; P08603 1107-1231) (designed binder)

- binding result [2]: binds
B1: FH19-20 (domain or fragment, human)
chain: GKCGPPPPIDNGDITSFPLSVYAPASSVEYQCQNLYQLEGNKRITCRNGQWSEPPKCLHPCVISREIMENYNIALRWTAKQKLYSRTGESVEFVCKRGYRLSSRSHTLRTTCWDGKLEYPTCAKR
